According to article PMC6171917 (PLoS ONE, 2018):
One block for each binder: values may come before it.

What was measured:
desmin, full-length = biological target: T1, desmin, full-length (UniProt P17661 1-470); test: co-sedimentation; FluoBACE on in vitro assembled IFs (25 μg/mL constant); serial dilutions of HEK 293T soluble extract with EGFP-DSP C-terminus (active ≤ 30 nM); 15 min at 4°C (K5/K14 IFs) or 22°C (desmin IFs); 20,000 × g 30 min; fluorescence in supernatant; one site specific binding with Hill slope; apparent Kd; details: one partner purified
T1 construct: desmin; The desmin fragments are said to be human; also called desmin IFs; source: E. coli, purified following a published protocol [37]; also whole E. coli extract; assembled in vitro into IFs for sedimentation assays
T1 sequence (P17661 whole entry, the tested form may be a part): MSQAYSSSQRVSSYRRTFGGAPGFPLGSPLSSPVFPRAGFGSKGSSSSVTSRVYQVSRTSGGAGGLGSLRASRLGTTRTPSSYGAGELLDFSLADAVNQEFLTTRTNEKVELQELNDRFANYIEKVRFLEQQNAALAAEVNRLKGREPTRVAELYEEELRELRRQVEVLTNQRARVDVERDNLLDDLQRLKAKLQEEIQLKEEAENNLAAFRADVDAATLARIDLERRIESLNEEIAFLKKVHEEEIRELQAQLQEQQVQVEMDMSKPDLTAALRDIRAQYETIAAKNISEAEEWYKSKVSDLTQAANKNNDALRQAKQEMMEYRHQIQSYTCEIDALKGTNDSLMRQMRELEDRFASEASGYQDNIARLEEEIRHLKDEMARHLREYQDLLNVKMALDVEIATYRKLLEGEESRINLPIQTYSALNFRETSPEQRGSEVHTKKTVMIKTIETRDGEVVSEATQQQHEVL

[1] = biological target: T2, K5/K14 (mixture or heterodimer of full-length cytokeratins 5 and 14) (UniProt P13647 1-590; P02533 1-472); test: as above; details: one partner purified
T2 construct: cytokeratin 5 (K5), plasmid pET23-K5; cytokeratin 14 (K14), plasmid pET23-K14; Same two recombinant proteins used spotted in 8 M urea (dot blot) and as in vitro assembled filaments (sedimentation assays); also called K5/K14 IFs; K5/K14 filaments; source: mixed for spotting, or heterodimer isolated by anion exchange and assembled into IFs
T2 sequence (looked up) 1: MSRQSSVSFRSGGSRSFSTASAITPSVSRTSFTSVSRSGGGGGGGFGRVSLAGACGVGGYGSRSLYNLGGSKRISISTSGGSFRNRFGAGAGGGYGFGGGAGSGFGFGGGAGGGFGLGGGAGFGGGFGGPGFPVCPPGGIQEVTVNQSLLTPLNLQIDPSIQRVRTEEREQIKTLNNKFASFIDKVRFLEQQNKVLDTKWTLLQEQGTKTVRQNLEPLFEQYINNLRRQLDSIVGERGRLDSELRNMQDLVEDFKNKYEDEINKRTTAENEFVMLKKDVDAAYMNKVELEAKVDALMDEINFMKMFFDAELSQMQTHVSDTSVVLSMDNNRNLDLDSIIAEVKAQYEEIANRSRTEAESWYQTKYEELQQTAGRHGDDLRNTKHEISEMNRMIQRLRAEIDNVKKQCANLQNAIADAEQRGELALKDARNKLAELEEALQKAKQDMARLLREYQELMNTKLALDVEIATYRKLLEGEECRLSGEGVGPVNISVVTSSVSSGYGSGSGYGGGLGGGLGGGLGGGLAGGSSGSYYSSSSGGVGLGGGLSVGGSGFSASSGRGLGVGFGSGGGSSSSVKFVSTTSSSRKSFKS
T2 sequence (looked up) 2: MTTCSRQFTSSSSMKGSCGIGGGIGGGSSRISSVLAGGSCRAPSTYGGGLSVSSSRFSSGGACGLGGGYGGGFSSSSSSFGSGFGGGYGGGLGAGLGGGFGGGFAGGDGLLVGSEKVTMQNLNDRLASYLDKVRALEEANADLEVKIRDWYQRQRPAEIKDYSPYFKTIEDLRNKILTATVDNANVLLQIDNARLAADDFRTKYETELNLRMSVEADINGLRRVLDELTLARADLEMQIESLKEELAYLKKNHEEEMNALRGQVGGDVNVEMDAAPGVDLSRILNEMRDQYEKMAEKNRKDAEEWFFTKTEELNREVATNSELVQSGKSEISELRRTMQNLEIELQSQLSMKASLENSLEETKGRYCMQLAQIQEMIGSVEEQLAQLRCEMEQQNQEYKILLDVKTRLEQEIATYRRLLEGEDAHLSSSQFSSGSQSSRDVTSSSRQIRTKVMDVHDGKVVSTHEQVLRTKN

[2] = biological target: T3, K5 (cytokeratin 5), purified (UniProt P13647 1-590); test: co-sedimentation; K5 and K14 mixed 1.1:1, heterodimer isolated on anion exchanger in 8 M urea, dialyzed against 0.7 mM sodium phosphate pH 7.5, assembly with 20 mM KCl at 37°C 30 min; 20,000 × g 4°C 30 min, pellet and supernatant by SDS-PAGE; details: both partners purified
T3 construct: cytokeratin 5 (K5), plasmid pET23-K5; source: E. coli Rosetta pLysS, inclusion bodies, purified (cation exchange, Superdex 200 in 6 M urea)
T3 sequence (looked up): T2 sequence (looked up) 1

- Kd (desmin, full-length): 18 nM
- Kd [1]: 10 nM
B1: EGFP-DSP C-terminus (C-terminus of desmoplakin tagged at the N-terminus with EGFP) (domain or fragment, UniProt P15924-1 2194-2871, looked up)
chain: PHTGLLLLSVQKRSMSFQGIRQPVTVTELVDSGILRPSTVNELESGQISYDEVGERIKDFLQGSSCIAGIYNETTKQKLGIYEAMKIGLVRPGTALELLEAQAATGFIVDPVSNLRLPVEEAYKRGLVGIEFKEKLLSAERAVTGYNDPETGNIISLFQAMNKELIEKGHGIRLLEAQIATGGIIDPKESHRLPVDIAYKRGYFNEELSEILSDPSDDTKGFFDPNTEENLTYLQLKERCIKDEETGLCLLPLKEKKKQVQTSQKNTLRKRRVVIVDPETNKEMSVQEAYKKGLIDYETFKELCEQECEWEEITITGSDGSTRVVLVDRKTGSQYDIQDAIDKGLVDRKFFDQYRSGSLSLTQFADMISLKNGVGTSSSMGSGVSDDVFSSSRHESVSKISTISSVRNLTIRSSSFSDTLEESSPIAAIFDTENLEKISITEGIERGIVDSITGQRLLEAQACTGGIIHPTTGQKLSLQDAVSQGVIDQDMATRLKPAQKAFIGFEGVKGKKKMSAAEAVKEKWLPYEAGQRFLEFQYLTGGLVDPEVHGRISTEEAIRKGFIDGRAAQRLQDTSSYAKILTCPKTKLKISYKDAINRSMVEDITGLRLLEAASVSSKGLPSPYNMSSAPGSRSGSRSGSRSGSRSGSRSGSRRGGFDATGNSSYSYSYSFSSSSIGH
notes: construct previously described [8]; KD curves use the active concentration; source: HEK 293T, transfected (calcium phosphate), soluble fraction of cell lysate; not shown: EGFP, N-terminal, kept

- binding result [2]: binds
B2: K14 (cytokeratin 14), purified (natural protein, UniProt P02533 1-472, looked up)
chain: T2 sequence (looked up) 2
notes: cytokeratin 14 (K14), plasmid pET23-K14; source: E. coli Rosetta, inclusion bodies, purified (anion exchange, gel filtration in 6 M urea)
